According to the Immune Epitope Database (IEDB):
One block for each sequence: values may come before it.

Tests used:
[1] = target: HLA-A*01:01; assay: IEDB peptide-MHC binding, purified MHC/direct/fluorescence; filed as Kd, often an IC50 or EC50 that approximates it; ≥ and ≤ were set here for values at or beyond the usual limits of such assays
[2] = target: HLA-A*02:01; assay: as above
[3] = target: HLA-A*03:01; assay: as above
[4] = target: HLA-A*11:01; assay: as above
[5] = target: HLA-A*31:01; assay: as above
[6] = target: HLA-A*69:01; assay: as above; details: source organism: Mycobacterium tuberculosis
[7] = target: HLA-B*15:01; assay: as above; details: source organism: Mycobacterium tuberculosis
[8] = target: HLA-B*15:17; assay: as above
[9] = target: HLA-B*18:01; assay: as above; details: source organism: Mycobacterium tuberculosis
[10] = target: HLA-B*27:05; assay: as above
[11] = target: HLA-B*38:01; assay: as above
[12] = target: HLA-B*40:01; assay: as above
[13] = target: HLA-B*46:01; assay: as above
[14] = target: HLA-B*48:01; assay: as above
[15] = target: HLA-B*51:01; assay: as above; details: source organism: Mycobacterium tuberculosis
[16] = target: HLA-B*57:01; assay: as above
[17] = target: HLA-B*58:01; assay: as above
[18] = target: HLA-B*08:01; assay: IEDB peptide-MHC binding, purified MHC/competitive/fluorescence; filed as Kd, often an IC50 or EC50 that approximates it; ≥ and ≤ were set here for values at or beyond the usual limits of such assays
[19] = target: HLA-B*39:01; assay: as above; details: source organism: Mycobacterium tuberculosis variant bovis BCG str. Pasteur 1173P2
[20] = target: HLA-A*26:01; assay: IEDB peptide-MHC binding, purified MHC/direct/fluorescence; filed as Kd, often an IC50 or EC50 that approximates it; ≥ and ≤ were set here for values at or beyond the usual limits of such assays; details: source organism: Salmonella enterica subsp. enterica serovar Typhimurium str. LT2
[21] = target: HLA-A*26:02; assay: as above; details: source organism: Salmonella enterica subsp. enterica serovar Typhimurium str. LT2
[22] = target: HLA-B*08:02; assay: as above; details: source organism: Salmonella enterica subsp. enterica serovar Typhimurium str. LT2
[23] = target: HLA-B*15:09; assay: as above; details: source organism: Salmonella enterica subsp. enterica serovar Typhimurium str. LT2
[24] = target: HLA-A*69:01; assay: IEDB peptide-MHC binding, purified MHC/competitive/fluorescence; filed as Kd, often an IC50 or EC50 that approximates it; ≥ and ≤ were set here for values at or beyond the usual limits of such assays
[25] = target: HLA-B*15:01; assay: as above
[26] = target: HLA-A*02:01; assay: as above
[27] = target: HLA-A*24:02; assay: as above
[28] = target: HLA-A*01:01; assay: as above
[29] = target: HLA-A*03:01; assay: as above; details: source organism: Acinetobacter baumannii
[30] = target: HLA-A*11:01; assay: as above; details: source organism: Acinetobacter baumannii
[31] = target: HLA-A*26:01; assay: as above; details: source organism: Acinetobacter baumannii
[32] = target: HLA-A*31:01; assay: as above; details: source organism: Acinetobacter baumannii
[33] = target: HLA-B*07:02; assay: as above; details: source organism: Acinetobacter baumannii
[34] = target: HLA-B*18:01; assay: as above; details: source organism: Acinetobacter baumannii
[35] = target: HLA-B*27:05; assay: as above; details: source organism: Acinetobacter baumannii
[36] = target: HLA-B*35:01; assay: as above; details: source organism: Acinetobacter baumannii
[37] = target: HLA-B*40:01; assay: as above
[38] = target: HLA-B*58:01; assay: as above; details: source organism: Acinetobacter baumannii
[39] = target: HLA-C*07:02; assay: IEDB peptide-MHC binding, purified MHC/direct/fluorescence; filed as Kd, often an IC50 or EC50 that approximates it; ≥ and ≤ were set here for values at or beyond the usual limits of such assays; details: source organism: Homo sapiens
[40] = target: HLA-A*29:02; assay: IEDB peptide-MHC binding, purified MHC/competitive/fluorescence; filed as Kd, often an IC50 or EC50 that approximates it; ≥ and ≤ were set here for values at or beyond the usual limits of such assays; details: source organism: Homo sapiens
[41] = target: HLA-A*80:01; assay: as above; details: source organism: Homo sapiens
[42] = target: HLA-A*32:15; assay: as above; details: source organism: Shigella flexneri 5 str. 8401
[43] = target: HLA-A*68:23; assay: as above; details: source organism: Shigella flexneri 5 str. 8401
[44] = target: HLA-B*15:42; assay: as above; details: source organism: Shigella flexneri 5 str. 8401
[45] = target: HLA-B*40:13; assay: as above; details: source organism: Shigella flexneri 5 str. 8401
[46] = target: HLA-B*45:06; assay: as above; details: source organism: Shigella flexneri 5 str. 8401
[47] = target: HLA-B*83:01; assay: as above; details: source organism: Shigella flexneri 5 str. 8401
[48] = source organism: Mycobacterium tuberculosis
[49] = source organism: Salmonella enterica
[50] = source organism: Salmonella enterica subsp. enterica serovar Typhi
[51] = source organism: Acinetobacter baumannii

Sequence: RPPMVTSGL
- Kd [1, 48]: ≥ 20 µM
- Kd [2, 48]: ≥ 20 µM
- Kd [3, 48]: ≥ 20 µM
- Kd [4, 48]: ≥ 20 µM
- Kd [5, 48]: ≥ 20 µM
- Kd [6]: ≥ 20 µM
- Kd [7]: ≥ 20 µM
- Kd [8, 48]: ≥ 20 µM
- Kd [9]: ≥ 20 µM
- Kd [10, 48]: ≥ 20 µM
- Kd ([11]; source organism: Mycobacterium tuberculosis str. Haarlem): ≥ 20 µM
- Kd [12, 48]: ≥ 20 µM
- Kd [13, 48]: ≥ 20 µM
- Kd [14, 48]: ≥ 20 µM
- Kd [15]: ≥ 20 µM
- Kd [16, 48]: ≥ 20 µM
- Kd [17, 48]: ≥ 20 µM
- Kd ([18]; source organism: Mycobacterium tuberculosis variant bovis BCG str. Pasteur 1173P2): ≥ 20 µM
- Kd [19]: ≥ 20 µM

Sequence: EIIFYHPTF
- Kd [1, 49]: ≥ 20 µM
- Kd [2, 49]: ≥ 20 µM
- Kd [3, 49]: ≥ 20 µM
- Kd [4, 49]: ≥ 20 µM
- Kd [20]: 0.803 µM
- Kd [21]: ≤ 0.001 µM
- Kd [5, 49]: ≥ 20 µM
- Kd [22]: ≥ 20 µM
- Kd [23]: ≥ 20 µM
- Kd [8, 49]: 0.107 µM
- Kd [10, 49]: ≥ 20 µM
- Kd ([11]; source organism: Salmonella enterica subsp. enterica serovar Typhimurium str. LT2): ≥ 20 µM
- Kd [12, 49]: ≥ 20 µM
- Kd [13, 49]: ≥ 20 µM
- Kd [14, 49]: ≥ 20 µM
- Kd [16, 49]: ≥ 20 µM
- Kd [17, 49]: ≥ 20 µM
- Kd [24, 50]: ≥ 20 µM
- Kd [18, 50]: ≥ 20 µM
- Kd [25, 50]: ≥ 20 µM

Sequence: TLMFGFFGF
- Kd [26, 50]: 4 µM
- Kd [27, 50]: ≥ 5 µM

- Kd [28, 51]: ≥ 20 µM
- Kd [26, 51]: ≥ 20 µM
- Kd [29]: 0.0385 µM
- Kd [30]: 0.015 µM
- Kd [27, 51]: ≥ 20 µM
- Kd [31]: ≥ 20 µM
- Kd [32]: 0.0344 µM
- Kd [24, 51]: ≥ 20 µM
- Kd [33]: ≥ 20 µM
- Kd [18, 51]: ≥ 20 µM
- Kd [25, 51]: ≥ 20 µM
- Kd [34]: ≥ 20 µM
- Kd [35]: ≥ 20 µM
- Kd [36]: ≥ 20 µM
- Kd [37, 51]: ≥ 20 µM
- Kd [38]: ≥ 20 µM
Sequence: SIYAGNTPK

Sequence: YYSNKAYQY
- Kd [39]: 0.15 µM
- Kd ([28]; source organism: Homo sapiens): ≥ 20 µM
- Kd [40]: ≤ 0.0001 µM
- Kd [41]: 0.373 µM

Sequence: HEWKIPLLI
- Kd [42]: 2.61 µM
- Kd [43]: 0.278 µM
- Kd [44]: ≥ 5 µM
- Kd ([37]; source organism: Shigella flexneri 5 str. 8401): 0.0097 µM
- Kd [45]: 0.0109 µM
- Kd [46]: ≥ 5 µM
- Kd [47]: 10.5 µM
